Assay results reported in patent US20230088483A1, “USE OF R[…] GENE DERIVED PROTEIN OR FRAGMENT THEREOF” (priority 2020, published 2023).
Read-outs that look alike come from different tables or passages of the source.

System: SARS-CoV-2 (C-Tan-nCoV Wuhan strain 01)
Assay type: cell-based
Settings: Vero cells; for Ct value: 100 PFU/well, medicine added 2 h after infection, supernatant at 24 h, qRT-PCR target ORF1a/b, control group Ct 22.6

B1: Novaferon: Recombinant cytokine gene derived protein, an analog of interferon (SEQ ID NO: 1); applicant's product, Genova Biotech (Qingdao) Co., Ltd. (protein)
chain: CNLSQTHSLGSKRTLMLLAQMGKISLFSCLKDRHDFEFPQEEFDGNQFQKAQAISVLHELIQQTFNLFSTKESSAAWDEGLLDKFRTELYRQLNDLEACMMQEVGVEETPLMNADSILAVKKYFQRITLYLMEKKYSPCAWEVVRVEIMRSLSFSTNLQKRLRGKD
modifications: Amino Acid Sequences Synthesized by Chemical Means
Novaferon 0.001 ng/mL
  Ct value: 22.645
Novaferon 0.01 ng/mL
  Ct value: 22.685
Novaferon 0.1 ng/mL
  Ct value: 22.815
Novaferon 1 ng/mL
  Ct value: 23.665
Novaferon 10 ng/mL
  Ct value: 29.025
Novaferon 100 ng/mL
  Ct value: 27.625
Medicine concentration 10 ng/mL
  cytopathic effect (CPE): no obvious cytopathic effect
Medicine concentration 100 ng/mL
  cytopathic effect (CPE): no obvious cytopathic effect
Preliminary calculation from inhibition rates based on Ct values
  half maximal inhibitory concentration IC50 for the SARS-CoV-2 in vitro: 1.02 ng/mL
